Source: patent US7998940B2, “Aptamers to von Willebrand factor and their use as thrombotic disease therapeutics” (Archemix Corp., priority 2004, dated 2011)

How the values were obtained:
[1] = target: human vWF A1 domain (SEQ ID NO 5) (Homo sapiens, UniProt P04275, T1381A); test: 3-point dot blot screen, human vWF A1 domain; assay type: binding; conditions: DNA SELEX 1 aptamers; 100 nM human vWF A1 domain; ratio of fraction bound with target to without
Excerpt: (§1) When a significant positive ratio of binding of RNA in the presence of human or rabbit vWF A1 domain versus in the absence of protein was seen, the pools were cloned using the TOPO TA cloning kit (Invitrogen, Cat. #45-0641, Carlsbad, Calif.) according to the manufacturer's instructions. Round 9 and 12 pool templates were cloned and sequenced (125 total sequences), producing 48 unique clones. All unique clones were transcribed, desalted, 5-^32P end-labeled, and assayed in a 3-point dot blot screen (no protein target control, 100 nM human vWF A1 domain (SEQ ID NO 5, FIG. 3), or 100 nM rabbit vWF A1 domain (SEQ ID NO 6, FIG. 3). The data is presented in the third and fourth columns of Table 4 below as the ratio of the fraction of the aptamer bound to the nitrocellulose in the presence of the target protein to the fraction of aptamer bound in the absence of the target protein.
(§2) When a significant positive ratio of binding of RNA in the presence of human or rabbit vWF A1 domain (SEQ ID NOS 4 and 6, respectively) versus in the absence of protein was seen, the pools were cloned using the TOPO TA cloning kit (Invitrogen Cat. #45-0641, Carlsbad, Calif.) according to the manufacturer's instructions. Round 9 and 12 pool templates were cloned and sequenced (185 total sequences), producing 78 unique clones within 3 sequence families. All unique clones were transcribed, desalted, 5-^32P end-labeled, and assayed in a 3-point dot blot screen (no protein target control, 100 nM human vWF A1 domain (SEQ ID NO 5), or 100 nM rabbit vWF A1 domain (SEQ ID NO 6). The data are presented in the third and fourth columns of Table 9 below as the ratio of the fraction of the aptamer bound to the nitrocellulose in the presence of the target protein to the fraction of aptamer bound in the absence of the target protein. Of the three sequence families, members of Family #1 and #2 and two individual, non-family aptamers, bound to both human vWF domain A1 (SEQ ID NO 5) and rabbit vWF domain A1 (SEQ ID NO 6).
(§3) All unique clones were assayed in a 3-point dot blot screen (no protein target control, 100 nM human vWF A1 domain (SEQ ID NO 5), or 100 nM rabbit vWF A1 domain (SEQ ID NO 6). The data are presented in the third and fourth columns of Table 14 below as the ratio of the fraction of the aptamer bound to the nitrocellulose in the presence of the target protein to the fraction of aptamer bound in the absence of the target protein.

[2] = tested on: rabbit vWF A1 domain (SEQ ID NO 6); test: 3-point dot blot screen, rabbit vWF A1 domain; assay type: binding; conditions: DNA SELEX 1 aptamers; 100 nM rabbit vWF A1 domain; ratio of fraction bound with target to without
rabbit vWF A1 domain (SEQ ID NO 6), sequence (as listed by the source): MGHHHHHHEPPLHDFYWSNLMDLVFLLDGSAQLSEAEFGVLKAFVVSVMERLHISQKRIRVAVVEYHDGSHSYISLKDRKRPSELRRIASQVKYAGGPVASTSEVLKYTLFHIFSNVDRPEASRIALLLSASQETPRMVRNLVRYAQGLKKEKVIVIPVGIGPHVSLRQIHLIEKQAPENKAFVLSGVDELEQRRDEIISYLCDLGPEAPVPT
Excerpt: as §1, §2, §3
When a significant positive ratio of binding of DNA in the presence of human or rabbit vWF A1 domain versus in the absence of protein was seen, the pools were cloned using the TOPO TA cloning kit (Invitrogen Cat. #45-0641, Carlsbad, Calif.) according to the manufacturer's instructions. Round 7 and 11 pool templates were cloned and sequenced (218 total sequences), producing 146 unique clones within 12 sequence families of which sequences from six families show vWF target binding activity. All unique clones were assayed twice in a 3-point dot blot screen (no protein target control, 20 nM full length human vWF (Calbiochem Cat. #681300, La Jolla, Calif.), or 20 nM rabbit vWF A1 domain. The data is presented in the third and fourth columns of Table 17 below as the ratio of the fraction of the aptamer bound to the nitrocellulose in the presence of the target protein to the fraction of aptamer bound in the absence of the target protein.

human vWF A1 domain (SEQ ID NO 5), sequence (P04275 with tags, fused parts or gaps T1381A): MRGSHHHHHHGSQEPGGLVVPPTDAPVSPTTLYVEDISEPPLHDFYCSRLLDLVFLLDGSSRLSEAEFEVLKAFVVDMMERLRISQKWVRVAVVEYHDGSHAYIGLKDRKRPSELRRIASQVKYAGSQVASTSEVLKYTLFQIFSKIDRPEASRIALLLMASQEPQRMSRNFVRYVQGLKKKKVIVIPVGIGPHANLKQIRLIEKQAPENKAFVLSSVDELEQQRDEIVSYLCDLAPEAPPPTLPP

B1: AMX202.H10: DNA SELEX 1 aptamer clone (nucleic acid)
chain: CTACCTACGATCTGACTAGCGGAATGAGAAGGCTGGTGGATTGCTCAGGTCTGCTGGCTGCTTACTCTCATGTAGTTCC
modifications: DNA, backbone and methylation of C not given here
notes: DNA SELEX 1 aptamer clone
- Screen- Human/No Protein [1]: 1.92
- Screen- Rabbit/No Protein [2]: 1.76

B2: AMX202.B8: DNA SELEX 1 aptamer clone (nucleic acid)
DNA: CTACCTACGATCTGACTAGCGGAATGAGTATGCTGATGGATTGCTCAGGTCTGCTGGCTGCTTACTCTCATGTAGTTCC
modifications: DNA, backbone not given here
notes: DNA SELEX 1 aptamer clone
- Screen- Human/No Protein [1]: 1.66
- Screen- Rabbit/No Protein [2]: 1.41

B3: AMX202.D6: DNA SELEX 1 aptamer clone (nucleic acid)
DNA: CTACCTACGATCTGACTAGCGGAATGAGAAGGCTGATGGATTGCTCAGGTCTGCTGGCTGCTTACTCTCATGTAGTTCC
modifications: DNA, backbone not given here
notes: DNA SELEX 1 aptamer clone
- Screen- Human/No Protein [1]: 1.94
- Screen- Rabbit/No Protein [2]: 1.55

B4: AMX202.A3: DNA SELEX 1 aptamer clone (nucleic acid)
DNA: CTACCTACGATCTGACTAGCGGAATGAGAGCGCTGATGGATTGCTCAGGTCTGCTGGCTGCTTACTCTCATGTAGTTCC
modifications: DNA, backbone not given here
notes: DNA SELEX 1 aptamer clone
- Screen- Human/No Protein [1]: 2.28
- Screen- Rabbit/No Protein [2]: 2.10

B5: AMX199.F6: DNA SELEX 1 aptamer clone (nucleic acid)
DNA: CTACCTACGATCTGACTAGCGAAACACTAGGTTGGTTAGGATTGGTGTGTTCCCGCTCTGCTTACTCTCATGTAGTTCC
modifications: DNA, backbone not given here
notes: DNA SELEX 1 aptamer clone
- Screen- Human/No Protein [1]: 1.37
- Screen- Rabbit/No Protein [2]: 1.30

B6: AMX199.F11: DNA SELEX 1 aptamer clone (nucleic acid)
DNA: CTACCTACGATCTGACTAGCGAAACACTAGGTTGGTTAGGATTGGTGTGTTTCTGCTCTGCTTACTCTCATGTAGTTCC
modifications: DNA, backbone not given here
notes: DNA SELEX 1 aptamer clone
- Screen- Human/No Protein [1]: 1.44
- Screen- Rabbit/No Protein [2]: 1.35

B7: AMX199.A10: DNA SELEX 1 aptamer clone (nucleic acid)
DNA: CTACCTACGATCTGACTAGCGGAACACTAGGTTGGTTAGGATTGGTGTGTTCCCGTTTTGCTTACTCTCATGTAGTTCC
modifications: DNA, backbone not given here
notes: DNA SELEX 1 aptamer clone
- Screen- Human/No Protein [1]: 1.25
- Screen- Rabbit/No Protein [2]: 1.29

B8: AMX199.G5: DNA SELEX 1 aptamer clone (nucleic acid)
DNA: CTACCTACGATCTGACTAGCGAAACACTAGGTTGGTTAGGATTGGTGTGTTCCCGCCCTGCTTACTCTCATGTAGTTCC
modifications: DNA, backbone not given here
notes: DNA SELEX 1 aptamer clone
- Screen- Human/No Protein [1]: 1.41
- Screen- Rabbit/No Protein [2]: 1.34

B9: AMX199.G1: DNA SELEX 1 aptamer clone (nucleic acid)
DNA: CTACCTACGATCTGACTAGCGAAACACTAGGTTGGTTAGGATTGGTGTGTTCCCGCTTTGCTTACTCTCATGTAGTTCC
modifications: DNA, backbone not given here
notes: DNA SELEX 1 aptamer clone
- Screen- Human/No Protein [1]: 1.19
- Screen- Rabbit/No Protein [2]: 1.26

B10: AMX199.H7: DNA SELEX 1 aptamer clone (nucleic acid)
DNA: CTACCTACGATCTGACTAGCGAAACACTAGGTTGGTTAGGATTGGTGTGTTTCCGCTTTGCTTACTCTCATGTAGTTCC
modifications: DNA, backbone not given here
notes: DNA SELEX 1 aptamer clone
- Screen- Human/No Protein [1]: 1.32
- Screen- Rabbit/No Protein [2]: 1.14

B11: AMX199.F1: DNA SELEX 1 aptamer clone (nucleic acid)
DNA: CTACCTACGATCTGACTAGCGAAACACTAGGTTGGTTAGGATTGGTGTGTTCCCGCTATGCTTACTCTCATGTAGTTCC
modifications: DNA, backbone not given here
notes: DNA SELEX 1 aptamer clone
- Screen- Human/No Protein [1]: 1.32
- Screen- Rabbit/No Protein [2]: 1.36

B12: AMX199.G4: DNA SELEX 1 aptamer clone (nucleic acid)
DNA: CTACCTACGATCTGACTAGCGAAACACTAGGTTGGTTAGGATTGGTGTGTTCCCGCTATGCTTACTCTCATGTAGTTCC
modifications: DNA, backbone not given here
notes: DNA SELEX 1 aptamer clone
- Screen- Human/No Protein [1]: 1.19
- Screen- Rabbit/No Protein [2]: 1.11

B13: AMX199.F8: DNA SELEX 1 aptamer clone (nucleic acid)
DNA: CTACCTACGATCTGACTAGCAAGGGGATTGGCTCCGGGTCTGGCGTGCTTGGCACCTCTGGCTTACTCTCATGTAGTTCC
modifications: DNA, backbone not given here
notes: DNA SELEX 1 aptamer clone
- Screen- Human/No Protein [1]: 1.78
- Screen- Rabbit/No Protein [2]: 1.79

B14: AMX200.E10: DNA SELEX 1 aptamer clone (nucleic acid)
DNA: CTACCTACGATCTGACTAGCAAGGGGATTGGCTCCGGGTCTGGCGTGCTCGGCACCTTTGGCTTACTCTCATGTAGTTCC
modifications: DNA, backbone not given here
notes: DNA SELEX 1 aptamer clone
- Screen- Human/No Protein [1]: 1.69
- Screen- Rabbit/No Protein [2]: 1.82

B15: AMX199.D8: DNA SELEX 1 aptamer clone (nucleic acid)
DNA: CTACCTACGATCTGACTAGCAAGGGGATTGGCTCCGGGTCTGGCGTGCTTGGCATCTTCGGCTTACTCTCATGTAGTTCC
modifications: DNA, backbone not given here
notes: DNA SELEX 1 aptamer clone
- Screen- Human/No Protein [1]: 1.89
- Screen- Rabbit/No Protein [2]: 2.00

B16: AMX202.F6: DNA SELEX 1 aptamer clone (nucleic acid)
DNA: CTACCTACGATCTGACTAGCAAGGGGATTGGCTCCGGGTCTGGCGTGCTCGGCACCTTCGGCTTACTCTCATGTAGTTCC
modifications: DNA, backbone not given here
notes: DNA SELEX 1 aptamer clone
- Screen- Human/No Protein [1]: 1.49
- Screen- Rabbit/No Protein [2]: 1.46

B17: AMX202.A8: DNA SELEX 1 aptamer clone (nucleic acid)
DNA: CTACCTACGATCTGACTAGCAAGGGGATTGGCTCCGGGTCTGGCGTGCTCGGCACTTCCGGCTTACTCTCATGTAGTTCC
modifications: DNA, backbone not given here
notes: DNA SELEX 1 aptamer clone
- Screen- Human/No Protein [1]: 1.27
- Screen- Rabbit/No Protein [2]: 1.27

B18: AMX199.B6: DNA SELEX 1 aptamer clone (nucleic acid)
DNA: CTACCTACGATCTGACTAGCAAGGGGATTGGCTCCGGGTCTGGCGTGCTTGGTACCTCCGGCTTACTCTCATGTAGTTCC
modifications: DNA, backbone not given here
notes: DNA SELEX 1 aptamer clone
- Screen- Human/No Protein [1]: 2.01
- Screen- Rabbit/No Protein [2]: 1.91

B19: AMX200.A11: DNA SELEX 1 aptamer clone (nucleic acid)
DNA: CTACCTACGATCTGACTAGCTGAGTAGTTAGTAACTTTTTATTATGGTTTGGTGGGTCTGGCTTACTCTCATGTAGTTCC
modifications: DNA, backbone not given here
notes: DNA SELEX 1 aptamer clone
- Screen- Human/No Protein [1]: 1.49
- Screen- Rabbit/No Protein [2]: 1.19

B20: AMX200.H8: DNA SELEX 1 aptamer clone (nucleic acid)
DNA: CTACCTACGATCTGACTAGCTGAGTAGTCAGTAATTTTTTATTATGGTTTGGTGGGCCTGGCTTACTCTCATGTAGTTCC
modifications: DNA, backbone not given here
notes: DNA SELEX 1 aptamer clone
- Screen- Human/No Protein [1]: 1.86
- Screen- Rabbit/No Protein [2]: 1.27
